# Where a chain is given by its changes, count along the chain named. Names may count otherwise.
# T1: IL-18 binding protein (IL-18BP) (UniProt O95998 31-194)
# T1 sequence (looked up): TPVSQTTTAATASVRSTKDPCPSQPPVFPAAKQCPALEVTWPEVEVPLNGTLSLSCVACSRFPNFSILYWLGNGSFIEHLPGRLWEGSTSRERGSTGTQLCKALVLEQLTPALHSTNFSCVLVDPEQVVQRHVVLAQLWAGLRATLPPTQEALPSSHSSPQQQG
# T2: IL-18 receptors on HEK-Blue IL-18 reporter cells (UniProt Q13478 19-541; O95256 20-599, limits assumed)
# T2 sequence (looked up) 1: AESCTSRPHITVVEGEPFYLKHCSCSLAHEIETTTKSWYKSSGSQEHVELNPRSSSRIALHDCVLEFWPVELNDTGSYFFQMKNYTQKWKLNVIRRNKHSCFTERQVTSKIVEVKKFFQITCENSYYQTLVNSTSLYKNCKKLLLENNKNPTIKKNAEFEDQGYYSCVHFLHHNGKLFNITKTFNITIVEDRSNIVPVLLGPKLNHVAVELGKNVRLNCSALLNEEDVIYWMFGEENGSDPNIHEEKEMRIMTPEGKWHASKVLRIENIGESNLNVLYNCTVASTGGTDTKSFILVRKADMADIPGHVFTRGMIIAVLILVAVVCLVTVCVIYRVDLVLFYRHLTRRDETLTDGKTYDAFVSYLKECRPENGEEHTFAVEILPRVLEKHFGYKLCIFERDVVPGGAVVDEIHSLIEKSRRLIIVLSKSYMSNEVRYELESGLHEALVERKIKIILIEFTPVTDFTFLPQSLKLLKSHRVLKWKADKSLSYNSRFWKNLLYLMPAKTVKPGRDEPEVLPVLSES
# T2 sequence (looked up) 2: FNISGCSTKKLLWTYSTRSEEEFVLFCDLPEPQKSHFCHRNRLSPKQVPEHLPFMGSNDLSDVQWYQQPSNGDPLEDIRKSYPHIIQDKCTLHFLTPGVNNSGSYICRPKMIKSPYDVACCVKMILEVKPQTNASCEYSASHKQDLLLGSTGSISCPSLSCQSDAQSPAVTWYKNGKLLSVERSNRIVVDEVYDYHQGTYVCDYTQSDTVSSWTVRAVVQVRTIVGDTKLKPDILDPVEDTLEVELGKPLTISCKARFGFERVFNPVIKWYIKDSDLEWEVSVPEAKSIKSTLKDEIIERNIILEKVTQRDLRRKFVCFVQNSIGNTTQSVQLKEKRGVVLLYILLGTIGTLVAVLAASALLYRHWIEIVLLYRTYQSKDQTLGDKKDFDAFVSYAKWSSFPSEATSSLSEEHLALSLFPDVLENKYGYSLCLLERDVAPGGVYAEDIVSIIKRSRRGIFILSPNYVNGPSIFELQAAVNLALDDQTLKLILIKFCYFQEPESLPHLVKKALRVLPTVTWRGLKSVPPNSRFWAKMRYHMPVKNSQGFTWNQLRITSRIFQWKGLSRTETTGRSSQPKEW
# B1: IL-18 variant E6G, D54A, S55K, T63S, N91K, Q114R (ligand)
# chain: YFGKLGSKLSVIRNLNDQVLFIDQGNRPLFEDMTDSDMRDNAPRTIFIISMYKAKQPRGMAVSISVKSEKISTLSSENKIISFKEMNPPDKIKDTKSDIIFFQRSVPGHDNKMRFESSSYEGYFLASEKERDLFKLILKKEDELGDRSIMFTVQNED
# B2: IL-18 variant G3S, E6Q, K53N, D54T, S55N, T63A, I80T, N91S (ligand)
# chain: B1 chain with G3S, G6Q, K53N, A54T, K55N, S63A, I80T, K91S, R114Q
# B3: IL-18 variant E6D, D54T, S55W, T63S, N91S, R104T (ligand)
# chain: B1 chain with G6D, A54T, K55W, K91S, R104T, R114Q
# B4: IL-18 variant N91S, R104H (ligand)
# chain: B1 chain with G6E, A54D, K55S, S63T, K91S, R104H, R114Q
# B5: IL-18 variant G3Q, E6D, K53S, D54I, S55E, T63S, N91S, R104Q (ligand)
# chain: B1 chain with G3Q, G6D, K53S, A54I, K55E, K91S, R104Q, R114Q
# B6: IL-18 variant G3V, E6Q, T34P, D54M, S55F, N91R, R104H (ligand)
# chain: B1 chain with G3V, G6Q, T34P, A54M, K55F, S63T, K91R, R104H, R114Q
# B7: IL-18 variant K53T, D54H, S55V, T63A, N91K (ligand)
# chain: B1 chain with G6E, K53T, A54H, K55V, S63A, R114Q
# B8: IL-18 variant G3I, E6Q, N91M, R104Y (ligand)
# chain: B1 chain with G3I, G6Q, A54D, K55S, S63T, K91M, R104Y, R114Q
# B9: IL-18 variant G3L, E6Q, D54Y, S55P, T63S, N91S, R104Q (ligand)
# chain: B1 chain with G3L, G6Q, A54Y, K55P, K91S, R104Q, R114Q
# B10: IL-18 variant G3L, E6N, I22M, T63V, N91T, R104P (ligand)
# chain: B1 chain with G3L, G6N, I22M, A54D, K55S, S63V, K91T, R104P, R114Q
# B11: IL-18 variant G3H, E6Q, K53N, D54S, S55P, T63A, N91I, R104S (ligand)
# chain: B1 chain with G3H, G6Q, K53N, A54S, K55P, S63A, K91I, R104S, R114Q
# B12: IL-18 variant G3D, E6Q, R27S, K53R, D54A, S55R, T63S, N91Q (ligand)
# chain: B1 chain with G3D, G6Q, R27S, K53R, K55R, K91Q, R114Q
# B13: IL-18 variant G3P, E6G, D54P, S55W, N91E, R104K (ligand)
# chain: B1 chain with G3P, A54P, K55W, S63T, K91E, R104K, R114Q
# B14: IL-18 variant G3P, E6K, K53T, D54Y, S55V, T63I, N91I (ligand)
# chain: B1 chain with G3P, G6K, K53T, A54Y, K55V, S63I, K91I, R114Q
# Molecular target: T1, IL-18 binding protein (IL-18BP)
# Assay: cell-based or functional assay
Binder,"Activity, +100 nM BP, DF-1000002","Activity, +100 nM BP, DF-5000003","Activity, +100 nM BP, DF-25000004","Ratio (-BP/+BP), DF-1000005","Ratio (-BP/+BP), DF-5000006","Ratio (-BP/+BP), DF-25000007"
B1,1.89,1.33,0.49,1.17,1.54,3.3
B2,0.23,0.11,0.11,1.05,1.03,0.71
B3,0.37,0.15,0.1,3.41,3.62,1.93
B4,0.09,0.08,0.11,14.7,7.35,1.72
B5,0.12,0.09,0.11,0.73,0.8,0.68
B6,0.14,0.08,0.08,6.88,4.95,1.77
B7,0.23,0.1,0.07,1.18,1.24,1.58
B8,1.84,0.96,0.29,1.15,2.07,5.26
B9,0.75,0.19,0.1,2.23,4.67,3.8
B10,0.09,0.09,0.07,0.8,0.82,0.97
B11,0.21,0.12,0.08,0.86,0.78,0.91
B12,0.52,0.15,0.09,1.95,2.81,1.5
B13,0.09,0.1,0.07,0.98,0.84,0.92
B14,0.32,0.11,0.08,0.81,1.01,0.93

# Molecular target: T2, IL-18 receptors on HEK-Blue IL-18 …
# Assay: cell-based or functional assay
Binder,"Activity, No BP, DF-100000","Activity, No BP, DF-500000","Activity, No BP, DF-2500000"
B1,2.2,2.05,1.61
B2,0.24,0.11,0.08
B3,1.27,0.55,0.18
B4,1.34,0.61,0.19
B5,0.09,0.07,0.07
B6,0.97,0.41,0.13
B7,0.28,0.12,0.12
B8,2.12,2,1.53
B9,1.66,0.9,0.37
B10,0.08,0.07,0.07
B11,0.18,0.09,0.07
B12,1.02,0.41,0.13
B13,0.09,0.08,0.07
B14,0.26,0.11,0.07
